B1: TNNI2 (parent)
chain: DWRKNIEEKSGMEGRKKMFESES
B2: TRIM29 (parent)
chain: RKCPVHGKTMELFCQTDQTCICYL

Variants of: B1
Assay: protein stability index of a GFP-peptide fusion (GPS, HEK-293T) (PSI 1-6); higher = more stable
Settings: c terminus: native
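Further: lentivirally expressed fusions sorted by FACS into six bins by GFP to DsRed ratio, PSI derived from sequencing read proportions per bin multiplied by bin number.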

Protein stability index of substitutions, site by site:
E22: P 2.06, N 4.44, S 5.13, Q 4.33, W 3.86, T 5.25, Y 3.84, V 3.77, R 1.58
S23: G 3.42, P 2.42, K 2.63, N 4.46, T 1.42, H 2.87, I 1.59, F 3.02, R 2.15, C 1.53, Y 2.59

Variants of: B2
Assay: as above
Settings: c terminus: a fixed tail appended

Protein stability index: each site, then its substitutions
T16: R 1.91, H 2.44, N 2.62, S 2.34, Y 2.54, G 3.39, E 1.78, M 1.57, Q 2.91, P 2.06, L 1.56, V 2.6, C 3.37, I 1.98, D 2.1, A 2.24, F 2.51, W 2.17, K 2.15
Q18: C 2.22, E 2.75, K 3.94, H 2.18, A 1.73, D 1.79, F 2.71, G 2.79, L 2.11, M 2.12
D17: H 1.89, N 1.7, T 1.76, C 2.08, K 1.52, M 1.93, I 1.79, F 1.49, G 2.73, P 2.04, Y 2.92, A 2.19, E 3.12, S 1.49, L 3.97, Q 1.66, R 2.8
G7: P 2.46, H 2.38, F 2.55, D 3.12, V 2.04, E 2.6, T 2.46, I 3.48, C 2.5, A 2.25, N 3.49, Y 2.14, K 1.63, W 1.4, S 2.57, L 2.26, Q 3.09, M 2.35
F13: Y 2.32, P 2.4, S 2.5, I 2.89, R 1.96, C 2.23, E 2.47, M 3.16, L 2.04, G 2.93, H 2.5, N 2.72, V 2.58, T 2.38, K 2.99, Q 3.27, A 1.78
K2: H 2.15, M 2.17, G 2.57, F 2.36, N 2.68, P 3.02, Q 2.12, V 2.02, R 1.69, D 2.15, S 2.27, E 1.65, I 1.94, T 1.7, W 2.91, A 2.54, Y 1.8, L 2.36, C 1.82
M10: L 1.99, Y 1.83, S 2.43, A 1.87, N 2.14, Q 1.87, V 1.98, R 2.84, G 1.65, I 3.45, K 2.02, D 2.44, T 1.49, F 2.58, C 1.94, P 2.35, W 1.46, E 1.46, H 2.43
T9: C 1.75, K 2.46, I 1.49, P 1.98, Y 2.25, F 3.32, S 3.03, D 2.81, G 2.72, N 2.79, M 2.77, W 2.42, A 2.95, H 1.78, V 2.41, E 2.06, R 1.21, L 2.56, Q 1.77
E11: L 3.23, M 1.7, S 2.85, W 2.41, V 2.9, Y 1.8, T 2.66, H 2.56, D 2.49, Q 1.47, P 2.95, N 2.55, I 2.77, F 1.76, R 2.14, A 1.83, K 1.92, G 2.31
K8: R 2.09, M 2.45, T 2.52, G 1.59, I 1.59, S 1.44, L 1.37, V 2.54, C 1.85, E 2.59, Q 2, P 1.48, W 2.77, F 2.24, N 2.56, D 1.94, Y 1.23, H 2.83, A 2.58
R1: M 1.95, W 2.46, A 2.68, C 2.39, D 1.67, H 3, P 2.66, E 1.71, Y 2.48, N 2.84, K 2.22, Q 1.91, L 3.04, V 2.98, F 1.95, T 2.32, S 2.19, G 3.33, I 1.65
P4: E 3.3, V 2.21, C 4.04, I 2.52, N 3.09, F 3.42, R 3.52, T 2.25, Q 1.95, Y 2.12, L 3.39, W 2.91, D 2.63, A 2.54, S 2.41, K 2.58
L12: G 1.68, R 1.99, N 1.99, E 1.53, M 2.98, K 1.46, Y 2.86, A 2.21, I 2.47, D 2.81, V 2.87, H 2.66, T 1.58, W 1.08, P 2.08, C 2.81, S 2.65, F 1.61
V5: N 4.09, W 2.52, H 3.76, E 1.79, P 2.87, R 2.42, M 2.58, A 1.72, K 2.3, Q 1.59, Y 2.71, G 3.21, D 3.62, T 2.46, I 2.79, C 3.08, L 1.92, S 3.1
C14: N 2.33, G 1.86, H 2.83, P 2, E 2.77, D 2.1, F 3.17, M 1.46, K 1.89, S 2.35, T 3.06, Q 2.03, Y 2.59, I 2.41, W 1.89, L 2.27, V 1.47, R 2.5, A 2.5
Q15: C 3.22, V 2.75, A 2.75, H 2.26, I 1.88, P 2.66, E 1.56, Y 1.92, L 3.21, T 2.14, N 2, F 3.06, G 2.93, K 1.79, S 2.48, M 2.43, R 1.78, D 1.52
C3: Q 2.64, D 2.13, K 1.89, Y 1.9, V 1.86, A 3.58, T 3.1, R 2.12, W 2.72, I 3.19, L 2.3, G 2.1, H 2.27, F 2.35, S 2.54, P 1.97, E 2.52, N 2.92
H6: C 1.62, I 2.37, L 2.85, A 2.38, K 2.29, P 1.98, N 3.27, V 2.44, F 2.31, G 2.4, D 3.05, R 4.01, W 1.96
